US6818617B1 (Temple University- Of The Commonwealth System of Higher …, priority 1997, dated 2004)
Entries after “also recorded” stand apart in the source; their conditions may differ. Where two headings read alike, the source gives them in different places.

What was measured:
αIIbβ3 [1] = target: T1, αIIbβ3 (Homo sapiens, UniProt P05106+P08514); test: A5 (CHOαIIbβ3+) cell adhesion to immobilized fibrinogen; type: cell-based; conditions: A5 (CHOαIIbβ3+) cells, ligand Fg
Experimental: (§1) Adhesion of cultured cells labeled with 5-chloromethylfluorescein diacetate (CMFDA) was performed as described earlier (Marcinkiewicz et al., Blood 90:1565-1575 (1997)). […] Wells were blocked by 1% BSA in HBSS buffer. Cells were labeled with fluorescein by incubation with 12.5 AM CMFDA in HBSS buffer containing 1% BSA at 37° C. by 15 min. Unbound label was removed by washing with the same buffer. Labeled cells (1×10^5 per sample) were added to the well in the presence or absence of inhibitors and incubated at 37° C. for 30 min. Unbound cells were removed by aspiration, the wells were washed and bound cells were lysed by adding 0.5% Triton X-100. In parallel the standard curve was prepared in the same plate from known concentrations of labelled cells. The plate was read using a Cytofluor 2350 fluorescence plate reader (Millipore, Bedford, Mass.) at 485 nm EX(excitation) filter and 530 nm (emmision) filter.
(§2) The effect of each peptide on cell adhesion was determined as described above. […] Cells that attached to the plates were lysed with detergent, and fluorescence intensity was measured. Percent inhibition was measured at each concentration and IC50 was determined.

αvβ3 = target: T2, αvβ3 (Homo sapiens, UniProt P05106+P06756); test: VNRC3 (CHOαvβ3+) cell adhesion to immobilized vitronectin; type: cell-based
T2 construct: expressed in transfected cells; host or cells: CHO (VNRC3 cells), gift of Dr. M. Ginsberg
T2 sequence (P06756 31-889 limits assumed): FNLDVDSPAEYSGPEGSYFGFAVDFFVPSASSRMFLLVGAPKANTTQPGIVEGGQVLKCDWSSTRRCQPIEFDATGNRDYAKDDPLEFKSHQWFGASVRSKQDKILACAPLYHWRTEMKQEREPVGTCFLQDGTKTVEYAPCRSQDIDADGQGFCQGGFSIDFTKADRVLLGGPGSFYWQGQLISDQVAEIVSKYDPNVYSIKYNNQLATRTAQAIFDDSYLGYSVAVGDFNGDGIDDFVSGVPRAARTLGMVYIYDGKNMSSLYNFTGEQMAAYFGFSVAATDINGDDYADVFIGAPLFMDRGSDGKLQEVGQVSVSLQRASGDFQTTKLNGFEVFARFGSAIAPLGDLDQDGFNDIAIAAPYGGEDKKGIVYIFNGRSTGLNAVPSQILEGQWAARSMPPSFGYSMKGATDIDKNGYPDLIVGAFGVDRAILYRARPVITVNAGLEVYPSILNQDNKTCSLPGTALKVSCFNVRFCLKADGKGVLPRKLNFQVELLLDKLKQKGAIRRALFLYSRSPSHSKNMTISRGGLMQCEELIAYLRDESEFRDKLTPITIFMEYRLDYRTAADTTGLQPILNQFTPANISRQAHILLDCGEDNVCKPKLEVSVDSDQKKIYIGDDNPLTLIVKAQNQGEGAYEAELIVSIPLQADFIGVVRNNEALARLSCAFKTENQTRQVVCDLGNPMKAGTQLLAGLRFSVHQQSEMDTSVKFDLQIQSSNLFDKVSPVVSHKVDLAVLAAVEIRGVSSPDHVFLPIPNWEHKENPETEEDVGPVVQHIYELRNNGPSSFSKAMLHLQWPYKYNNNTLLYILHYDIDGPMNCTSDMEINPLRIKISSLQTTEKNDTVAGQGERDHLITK
T2 sequence (P06756 891-1048 partner limits assumed): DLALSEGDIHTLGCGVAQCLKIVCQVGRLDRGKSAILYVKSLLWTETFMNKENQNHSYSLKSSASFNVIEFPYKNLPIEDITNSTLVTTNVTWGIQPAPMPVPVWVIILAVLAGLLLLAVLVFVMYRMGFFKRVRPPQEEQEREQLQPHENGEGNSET
T2 sequence (P05106 27-788): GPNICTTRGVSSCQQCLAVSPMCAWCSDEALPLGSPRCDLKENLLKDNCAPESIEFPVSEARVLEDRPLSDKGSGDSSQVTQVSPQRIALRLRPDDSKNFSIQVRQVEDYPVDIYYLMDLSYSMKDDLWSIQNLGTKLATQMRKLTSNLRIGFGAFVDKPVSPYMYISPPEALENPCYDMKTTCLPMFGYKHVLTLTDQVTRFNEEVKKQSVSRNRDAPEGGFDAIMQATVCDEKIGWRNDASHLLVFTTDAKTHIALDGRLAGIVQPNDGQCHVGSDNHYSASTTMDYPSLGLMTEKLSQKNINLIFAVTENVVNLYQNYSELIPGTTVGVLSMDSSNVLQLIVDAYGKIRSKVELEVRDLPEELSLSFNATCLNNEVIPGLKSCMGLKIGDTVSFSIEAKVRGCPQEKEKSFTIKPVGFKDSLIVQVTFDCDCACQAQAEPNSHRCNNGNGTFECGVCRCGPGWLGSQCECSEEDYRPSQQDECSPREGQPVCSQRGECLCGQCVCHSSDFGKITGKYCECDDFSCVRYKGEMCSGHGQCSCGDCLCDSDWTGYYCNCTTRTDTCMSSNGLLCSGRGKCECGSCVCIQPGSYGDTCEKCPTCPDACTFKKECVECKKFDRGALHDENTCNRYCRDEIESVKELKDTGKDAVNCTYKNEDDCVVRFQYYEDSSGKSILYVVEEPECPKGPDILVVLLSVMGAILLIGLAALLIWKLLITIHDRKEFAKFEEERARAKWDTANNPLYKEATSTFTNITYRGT
Experimental: as §1, §2

α5β1 = target: T3, α5β1 (Homo sapiens, UniProt P05556+P08648); test: K562 cell adhesion to immobilized fibronectin; type: cell-based; conditions: 5 μg per sample of protein from fraction
T3 construct: host or cells: K562
T3 sequence (P08648 42-894 limits assumed): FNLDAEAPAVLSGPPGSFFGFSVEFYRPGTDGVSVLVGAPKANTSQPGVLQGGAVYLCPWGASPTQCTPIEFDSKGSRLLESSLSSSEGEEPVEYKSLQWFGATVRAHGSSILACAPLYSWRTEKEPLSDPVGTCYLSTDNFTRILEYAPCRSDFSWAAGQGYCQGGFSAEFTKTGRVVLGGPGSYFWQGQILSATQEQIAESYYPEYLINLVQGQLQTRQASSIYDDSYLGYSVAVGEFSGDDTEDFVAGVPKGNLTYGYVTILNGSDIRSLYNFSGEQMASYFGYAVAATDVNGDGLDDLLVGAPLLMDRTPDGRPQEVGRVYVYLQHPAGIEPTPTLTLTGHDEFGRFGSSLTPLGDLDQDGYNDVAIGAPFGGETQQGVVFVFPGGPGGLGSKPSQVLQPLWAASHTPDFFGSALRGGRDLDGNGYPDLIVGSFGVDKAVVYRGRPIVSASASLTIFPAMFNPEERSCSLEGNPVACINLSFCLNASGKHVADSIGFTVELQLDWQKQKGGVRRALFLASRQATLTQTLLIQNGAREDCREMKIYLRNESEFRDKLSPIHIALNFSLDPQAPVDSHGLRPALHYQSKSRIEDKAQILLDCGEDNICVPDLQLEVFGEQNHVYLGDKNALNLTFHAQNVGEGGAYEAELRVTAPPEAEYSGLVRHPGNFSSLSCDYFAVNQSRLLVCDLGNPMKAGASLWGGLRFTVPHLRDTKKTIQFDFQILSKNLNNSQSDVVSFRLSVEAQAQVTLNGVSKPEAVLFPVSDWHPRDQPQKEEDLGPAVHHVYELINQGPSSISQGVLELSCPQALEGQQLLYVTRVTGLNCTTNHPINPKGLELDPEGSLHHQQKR
T3 sequence (P08648 895-1049 partner limits assumed): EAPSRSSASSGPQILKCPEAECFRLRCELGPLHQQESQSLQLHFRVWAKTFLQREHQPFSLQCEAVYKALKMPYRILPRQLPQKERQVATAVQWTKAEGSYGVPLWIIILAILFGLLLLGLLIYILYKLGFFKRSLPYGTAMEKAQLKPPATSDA
T3 sequence (P05556 21-798): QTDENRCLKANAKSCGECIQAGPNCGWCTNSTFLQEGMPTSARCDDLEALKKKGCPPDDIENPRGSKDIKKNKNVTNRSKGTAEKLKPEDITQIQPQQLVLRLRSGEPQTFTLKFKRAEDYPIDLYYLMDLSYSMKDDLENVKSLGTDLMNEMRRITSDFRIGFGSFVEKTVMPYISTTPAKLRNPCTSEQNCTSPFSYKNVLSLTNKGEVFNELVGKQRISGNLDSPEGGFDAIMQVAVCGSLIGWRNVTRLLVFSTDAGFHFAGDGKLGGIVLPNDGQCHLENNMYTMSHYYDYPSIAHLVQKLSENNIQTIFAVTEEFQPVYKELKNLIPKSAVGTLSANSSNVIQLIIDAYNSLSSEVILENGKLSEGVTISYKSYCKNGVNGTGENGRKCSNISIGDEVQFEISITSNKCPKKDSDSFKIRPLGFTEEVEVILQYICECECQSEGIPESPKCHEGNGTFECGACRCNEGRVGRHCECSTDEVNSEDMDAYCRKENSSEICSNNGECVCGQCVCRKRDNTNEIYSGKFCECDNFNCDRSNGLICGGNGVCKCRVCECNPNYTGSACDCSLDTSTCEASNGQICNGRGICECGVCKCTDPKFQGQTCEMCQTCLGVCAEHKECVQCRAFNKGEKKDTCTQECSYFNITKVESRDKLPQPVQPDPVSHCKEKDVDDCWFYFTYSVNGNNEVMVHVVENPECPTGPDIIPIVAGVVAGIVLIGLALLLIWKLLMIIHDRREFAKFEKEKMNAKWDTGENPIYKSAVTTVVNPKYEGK
Experimental: as §1

α6β1 = target: T4, α6β1 (Homo sapiens, UniProt P05556+P23229); test: K562 (α6+) cell adhesion to laminin; type: cell-based
T4 construct: expressed in transfected cells; host or cells: K562 transfected with α6
T4 sequence (P23229 24-938 limits assumed): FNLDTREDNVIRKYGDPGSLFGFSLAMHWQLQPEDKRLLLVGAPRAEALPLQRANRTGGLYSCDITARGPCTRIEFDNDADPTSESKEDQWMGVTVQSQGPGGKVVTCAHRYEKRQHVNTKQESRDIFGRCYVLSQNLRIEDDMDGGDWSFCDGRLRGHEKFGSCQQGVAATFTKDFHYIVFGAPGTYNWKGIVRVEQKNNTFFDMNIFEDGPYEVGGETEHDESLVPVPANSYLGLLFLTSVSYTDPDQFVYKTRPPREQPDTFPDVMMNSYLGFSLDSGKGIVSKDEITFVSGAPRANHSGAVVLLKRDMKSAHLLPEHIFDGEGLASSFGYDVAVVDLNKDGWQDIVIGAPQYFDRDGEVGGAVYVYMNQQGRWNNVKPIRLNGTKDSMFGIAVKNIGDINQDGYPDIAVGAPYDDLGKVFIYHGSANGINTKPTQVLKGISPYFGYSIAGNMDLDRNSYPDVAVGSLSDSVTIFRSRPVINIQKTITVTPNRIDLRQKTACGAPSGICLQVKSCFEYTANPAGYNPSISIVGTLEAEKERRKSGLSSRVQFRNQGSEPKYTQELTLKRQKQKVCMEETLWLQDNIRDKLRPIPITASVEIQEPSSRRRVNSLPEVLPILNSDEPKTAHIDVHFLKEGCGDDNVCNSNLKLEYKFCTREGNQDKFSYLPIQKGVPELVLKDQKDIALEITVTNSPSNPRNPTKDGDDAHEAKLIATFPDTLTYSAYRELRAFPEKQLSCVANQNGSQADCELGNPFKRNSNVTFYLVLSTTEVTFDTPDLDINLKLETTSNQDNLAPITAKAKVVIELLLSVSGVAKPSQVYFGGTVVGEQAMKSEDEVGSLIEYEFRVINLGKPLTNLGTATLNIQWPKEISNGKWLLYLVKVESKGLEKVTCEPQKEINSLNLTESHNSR
T4 sequence (P23229 942-1130 partner limits assumed): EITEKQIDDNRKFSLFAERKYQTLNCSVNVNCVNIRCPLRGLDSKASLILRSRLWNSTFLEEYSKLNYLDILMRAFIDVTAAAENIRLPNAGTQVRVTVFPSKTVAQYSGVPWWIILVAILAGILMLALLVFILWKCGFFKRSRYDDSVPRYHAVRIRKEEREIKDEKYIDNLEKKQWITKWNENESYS
T4 sequence (P05556 21-798): as the sequence (P05556 21-798) above
Experimental: as §1, §2

α4β1 [2] = target: T5, α4β1 (Homo sapiens, UniProt P05556+P13612); conditions: read-out: IC50, direct binding assay; Jurkat cells, α4β1, VCAM-Ig
Experimental: (§3) The direct binding assay (DBA) with VCAM-11 g alkaline phosphatase conjugate was performed using Jurkat (α4β1 expressing) and JY (α4β7 expressing) cells according to procedure described in Lobb et al, Cell Adhes. Commun. 3:385-398 (1995)).

α4β7 [3] = target: T6, α4β7 (Homo sapiens, UniProt P13612+P26010); conditions: read-out: IC50, direct binding assay; JY cells, α4β7, VCAM-Ig
Experimental: as §3

α4β1 and α4β7 integrins = test: Panel of α4 integrin cell adhesion assays; type: cell-based; conditions: range over assays
Experimental: as §1, §2

α4β1 integrin [4] = target: T7, α4β1 integrin (Homo sapiens, UniProt P05556+P13612); test: HP2/1 antibody binding to Jurkat cells by flow cytometry; conditions: 60 nM EC3, 10 μg/ml HP 2/1, flow cytometry
T7 construct: host or cells: Jurkat
Experimental: (§4) Samples for flow cytometry analysis were prepared as described (Marcinkiewicz et al., Biochem. J. 371:118-124 (1996)), and analyzed in a Coulter Epics flow cytometer (Miami, Fla.).
(§5) The adhesion study was performed using CMFDA-labeled Jurkat cells in the absence or presence 1 mM GRGDSP or GRGESP, or 10 μg/ml HP 2/1. Competition between EC3 and HP2/1 was also confirmed in cell suspension using FACS analysis. […] The experiment was performed using flow cytometry. Jurkat cells (open bars) or B2-CHO cells (CHO cells with deleted α5 transfected with α4) (closed bars) were incubated with 10 μg/ml HP 2/1 in the absence (a) or presence 60 nM EC3 (b) for 30 min at room temperature. After washing, 10 μg/ml of FITC-conjugated goat anti-mouse IgG was added and samples were incubated for another 30 min at room temperature. The samples were fixed by addition of 1% paraformaldehyde before measurement of fluorescence intensity.

α4β1 integrin [5] = target: T8, α4β1 integrin (UniProt G3HZ55+P13612); test: HP2/1 antibody binding to α4B2 cells by flow cytometry; design: species or system human; conditions: 60 nM EC3, 10 μg/ml HP 2/1, flow cytometry
T8 construct: expressed in transfected cells; host or cells: B2 CHO cells (α5-deficient), gift of Dr. Y. Takada
Experimental: as §4, §5

α4 inactive G190A mutant = target: T9, α4 inactive G190A mutant (Homo sapiens, UniProt P13612, G223A); test: Adhesion of CHO cells transfected with α4 G190A mutant to immobilized EC3; type: cell-based; conditions: EC3 2 μg/well immobilized; adhesion identical with non transfected cells
T9 construct: expressed in transfected cells; host or cells: CHO, gift of Dr. Y. Takada
Experimental: as §1
EC3 (2 μg/well) and HP2/1 (1 μg/well) were immobilized on the 96well plate. The CHO cells were labeled with CMFDA and adhesion was performed as described above. […] Only A2 cells expressing wild type α4 adhered to immobilized HP2/1.

[6] = system: lymphocyte infiltration of pancreatic Langerhans islets; test: Lymphocyte infiltration of Langerhans islets in Non Obese Diabetic (NOD) mice; type: in vivo, mouse
Experimental: Female NOD mice from […] of age were purchased from Jackson Laboratory (Bar Harbor, Me.).
After nine weeks of treatment the animals were sacrificed by exposure to CO2. The pancreas was removed, frozen, and stored at −70° C. until the histological analysis. For the histological analysis, five μm sections of frozen tissue were fixed with acetone. For detection of infiltrating lymphocytes, the sections were stained with hematoxylin/eosin, and observed by light microscopy.

α4β1 [7] = target: T5, α4β1; test: Jurkat cell adhesion to immobilized VCAM-1; type: cell-based; design: host or cells: Jurkat
Experimental: as §1
The cell adhesion assay (as described in Example 1) was used to study the inhibitory effect of the eluted fractions on Jurkat cell adhesion to immobilized VCAM-1 and on K562 cell adhesion to fibronectin. […]
as §2

α4β1 [8] = target: T5, α4β1; test: Jurkat cell adhesion to CS-1; type: cell-based; design: host or cells: Jurkat; conditions: Jurkat cells, ligand CS-1
Experimental: as §1, §2

αIIbβ3 [9] = target: T1, αIIbβ3; test: ADP-induced platelet aggregation in platelet rich plasma (ADP PA); type: cell-based; design: endogenous in cells; host or cells: platelets in platelet rich plasma; conditions: Platelets, αIIbβ3, ligand Fg, 30 μM ADP
Experimental: Blood from a healthy donor was collected into a syringe containing sodium citrate as an anticoagulant. The anticoagulated blood was centrifuged at 400 g for 17 minutes, and platelet rich plasma (PRP) was removed by aspiration.

α4β7 [10] = target: T6, α4β7; test: RPMI 8866 cell adhesion to MadCAM-1; type: cell-based; design: endogenous in cells; host or cells: JY cells (A11); RPMI 8866 cells (A12); conditions: RPMI 8866 cells, α4β7, ligand MadCAM-1
Experimental: as §1, §2

α4β1 [11] = target: T10, α4β1 (UniProt G3HZ55+P13612); test: A2 (CHOα4+) cell adhesion to immobilized VCAM-1; type: cell-based, human; design: expressed in transfected cells; host or cells: CHO (A2 cells, α4+ α5+), gift of Dr. Y. Takada; conditions: A2 (CHOα4+) cells, ligand VCAM-1
Experimental: as §1, §2

α4β1 [12] = target: T10, α4β1; test: α4B2 (CHOα4+/α5−) cell adhesion to immobilized VCAM-1; type: cell-based, human; design: expressed in transfected cells; host or cells: B2 CHO cells (α5-deficient), gift of Dr. Y. Takada; conditions: α4B2 (CHOα4+/α5−) cells, ligand VCAM-1
Experimental: as §1
Chinese hamster ovary cells transfected with human α4 integrin were provided by Dr. Y. Takada (Scripps Research Institute, La Jolla, Calif.). […] The bound cells were lysed with 0.5% Triton X-100, and fluorescence was measured.
as §2

B1: EC-3 (protein, listed as Echis carinatus)
chain 1: NSVHPCCDPVKCEPREGEHCISGPCCRNCYFLRAGTVCKRAVGDDVDDYCSGITPDCPRNRYKGKED
chain 2: NSVHPCCDPVKCEPREGEHCISGPCCRNCKFLNAGTICKRAMLDGLNDYCTGISTDCPRNRYKGKED
αIIbβ3 [1]
  IC50: 500 nM
αvβ3; VNRC3 (CHOαvβ3+) cells, ligand Vn
  IC50: > 10000 nM
αvβ3; up to 10 μM
  inhibition of αvβ3-dependent adhesion: no inhibition
α5β1
  inhibition of binding of K562 cells to immobilized fibronectin: inhibited binding
α6β1; K562 (α6+) cells, α6β1, ligand Lm
  IC50: > 10000 nM
α6β1; at concentration 10 μM
  inhibition of adhesion to laminin of K562 cells transfected with α6: neither echistatin nor EC3 inhibited
α4β1 [2]
  IC50: 28 nM
α4β7 [3]
  IC50: 6 nM
α4β1 and α4β7 integrins; anchorage-dependent and anchorage-independent cells, read-out: concentration of highly potent inhibition of interaction of cells expressing α4β1 with VCAM-1 or CS-1
  IC50: 20 to 300 nM
α4β1 and α4β7 integrins; read-out: IC50, adhesion of cells expressing α4β1 and α4β7 integrins to VCAM-1 and MadCAM-1
  IC50: 5 to 300 nM
α4β1 integrin [4]
  inhibition of HP2/1 binding to Jurkat cells: No inhibitory effect
α4β1 integrin [5]
  inhibition of HP2/1 binding to α4B2 cells: inhibition of HP2/1 binding
α4 inactive G190A mutant
  interaction of inactive G190A α4 mutant with immobilized EC3: did not interact
[6]; ++ = ⅓ of the islet infiltrated, of 27 (echistatin) or 29 (EC-3) islets, nine weeks i.p.
  Number of Islets, Infiltration Score ++: 7
[6]; +++ = ½ or more of the islet infiltrated, of 27 (echistatin) or 29 (EC-3) islets, nine weeks i.p.
  Number of Islets, Infiltration Score +++: 0
[6]; NOD mice, i.p. three times per week for nine weeks, echistatin 1 μg/mouse, EC-3 3 μg/mouse, 10 animals per group
  Number of Animals without infiltration: 2
[6]; echistatin 1 μg/mouse, EC-3 3 μg/mouse, i.p. three times per week, nine weeks
  effect on lymphocyte infiltration in pancreatic islets of NOD mice (in words): reduced levels of lymphocyte infiltration; also recorded: can block lymphocyte invasion; also recorded: reduced the level of lymphocyte infiltration
[6]; − = no infiltration, of 27 (echistatin) or 29 (EC-3) islets, nine weeks i.p.
  Number of Islets, Infiltration Score −: 10
α4β1 [7]; 5 μg per sample of protein from fraction
  inhibitory effect on Jurkat cell binding to immobilized VCAM-1: significant inhibitory effects
α4β1 [7]; Jurkat cells, ligand VCAM-1, read-out: IC50, cell adhesion
  IC50: 25 nM
α4β1 [8]
  IC50: 100 nM
αIIbβ3 [9]
  IC50: 1000 nM
α4β7 [10]
  IC50: 5 nM
α4β1 [11]
  IC50: 30 nM
α4β1 [12]
  IC50: 30 nM
